{"source": "patent US20120316071A1", "about": "(published 2012)", "binders": {"B1": {"name": "Fab VH1-46_IGHD6-6*01_IGHJ1*01 S102A/S103P/S104F/H111F (APFF) & L6_IGKJ1*01 S92V (Fab, V domains shown)", "VH": "QVQLVQSGAEVKKPGASVKVSCKASGYTFTSYYMHWVRQAPGQGLEWMGIINPSGGSTSYAQKFQGRVTMTRDTSTSTVYMELSSLRSEDTAVYYCAREEYAPFSAEYFQFWGQGTLVTVSS", "VL": "EIVLTQSPATLSLSPGERATLSCRASQSVSSYLAWYQQKPGQAPRLLIYDASNRATGIPARFSGSGSGTDFTLTISSLEPEDFAVYYCQQRVNWPPWTFGQGTKVEIKR", "notes": "Fab; also called APFF / S92V"}}, "experiment_in_all_cases": "MSD ECL multispot assay, antigen spotted on plate, Fab in solution; blank spot of this row 317", "key": {"[1]": {"target": "T1, rHuman CD44/Fc Chimera, CF (R&D Systems Cat#3660-CD) (human, UniProt P16070 21-220)", "T1 construct": "Bought recombinant protein; not shown: Fc of the bought chimera"}, "[2]": {"target": "T2, rHuman P-Cadherin/Fc Chimera, CF (R&D Systems Cat#861-PC) (human, UniProt P22223 108-654)", "T2 construct": "Bought recombinant protein; not shown: Fc of the bought chimera"}, "[3]": {"target": "T3, rHuman Notch-1/Fc Chimera, CF (R&D Systems Cat#3647-TK) (human, UniProt P46531 19-526)", "T3 construct": "Bought recombinant protein; not shown: Fc of the bought chimera"}, "[4]": {"target": "T4, rHuman IGF-1 sR (insulin-like growth factor-1 soluble receptor), CF (R&D Systems Cat#391-GR) (human, UniProt P08069 31-932)", "T4 construct": "Bought recombinant soluble receptor"}, "[5]": {"target": "T5, rHuman HGF R/c-MET/Fc Chimera, CF (R&D Systems Cat#358-MT/CF) (human, UniProt P08581 25-932)", "T5 construct": "Bought recombinant protein; also called HGF R/Fc; not shown: Fc of the bought chimera", "T5 sequence (P08581 25-932, change not shown)": "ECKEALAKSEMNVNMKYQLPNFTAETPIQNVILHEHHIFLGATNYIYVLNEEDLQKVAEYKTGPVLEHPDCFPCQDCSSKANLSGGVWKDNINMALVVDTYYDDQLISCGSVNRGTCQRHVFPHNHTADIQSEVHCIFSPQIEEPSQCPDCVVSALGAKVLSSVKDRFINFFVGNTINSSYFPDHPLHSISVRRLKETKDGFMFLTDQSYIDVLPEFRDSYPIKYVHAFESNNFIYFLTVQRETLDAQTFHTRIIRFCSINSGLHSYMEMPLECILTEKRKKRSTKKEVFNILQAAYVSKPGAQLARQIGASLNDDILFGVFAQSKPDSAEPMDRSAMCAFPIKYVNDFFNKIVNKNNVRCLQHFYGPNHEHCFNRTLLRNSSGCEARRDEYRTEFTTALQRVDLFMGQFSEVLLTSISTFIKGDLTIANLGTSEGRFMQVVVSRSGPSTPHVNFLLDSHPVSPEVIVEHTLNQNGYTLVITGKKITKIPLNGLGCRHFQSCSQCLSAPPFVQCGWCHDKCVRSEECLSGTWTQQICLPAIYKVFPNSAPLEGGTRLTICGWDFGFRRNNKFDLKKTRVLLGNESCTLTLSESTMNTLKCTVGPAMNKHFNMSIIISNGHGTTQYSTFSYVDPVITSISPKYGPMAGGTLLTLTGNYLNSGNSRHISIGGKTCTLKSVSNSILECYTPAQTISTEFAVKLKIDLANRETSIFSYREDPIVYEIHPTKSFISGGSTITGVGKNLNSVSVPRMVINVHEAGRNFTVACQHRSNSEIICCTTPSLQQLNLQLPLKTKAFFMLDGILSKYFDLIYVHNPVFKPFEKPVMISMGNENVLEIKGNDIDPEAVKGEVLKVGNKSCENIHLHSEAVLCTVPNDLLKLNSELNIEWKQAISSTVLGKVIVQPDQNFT"}, "[6]": {"target": "T6, rHuman ErbB2/Fc Chimera, CF (R&D Systems Cat#1129-ER) (human, UniProt P04626 23-652)", "T6 construct": "Bought recombinant protein; not shown: Fc of the bought chimera"}, "[7]": {"target": "T7, rHuman EGF R/Fc Chimera, CF (R&D Systems Cat#344-ER) (human, UniProt P00533 25-645)", "T7 construct": "Bought recombinant protein; not shown: Fc of the bought chimera"}, "[8]": {"target": "T8, rHuman Erythropoietin R/Fc Chimera, CF (R&D Systems Cat#963-ER) (human, UniProt P19235 25-250)", "T8 construct": "Bought recombinant protein; also called EPO R; EPO R/Fc; not shown: Fc of the bought chimera", "T8 sequence (looked up)": "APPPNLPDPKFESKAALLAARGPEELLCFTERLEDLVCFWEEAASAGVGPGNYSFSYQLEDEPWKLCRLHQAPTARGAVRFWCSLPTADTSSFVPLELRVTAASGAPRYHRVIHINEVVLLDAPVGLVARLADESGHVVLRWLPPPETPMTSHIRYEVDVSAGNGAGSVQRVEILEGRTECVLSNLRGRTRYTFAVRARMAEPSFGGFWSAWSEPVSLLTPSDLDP"}}}
{"binder": "B1", "values": [{"measurement": "ECL signal", "setting": "[1]", "result": 248}, {"measurement": "ECL signal", "setting": "[2]", "result": 373}, {"measurement": "ECL signal", "setting": "[3]", "result": 262}, {"measurement": "ECL signal", "setting": "[4]", "result": 244}, {"measurement": "ECL signal", "setting": "[5]", "result": 230}, {"measurement": "ECL signal", "setting": "[6]", "result": 188}, {"measurement": "ECL signal", "setting": "[7]", "result": 319}, {"measurement": "ECL signal", "setting": "[8]", "result": 371}]}
